The source of these data is US11306156.

“And” between values parts separate entries of the source, which are not always exact repeats. Equal values may be shown once.

Assay [1] has as its target D3H44 light chain Q124R_T178R, N-terminal HA or FLAG tag. As to the kind of experiment: LCCA, SPR of light chain tags, L1:L2 DNA 1:3 norm. to 1:1; other light chain m22.
For assay [2], the target named is D3H44 light chain Q124E_V133Y_T180E, N-terminal HA or FLAG tag. As to the kind of experiment: LCCA, SPR of light chain tags, L1:L2 DNA 1:3 norm. to 1:1; other light chain m14.
Assay [3] concerns the target D3H44 light chain Q124R, N-terminal HA or FLAG tag. As to the kind of experiment: LCCA, L1:L2 DNA 1:9, SPR of light chain tags; competing light chain m18.
The target of assay [4] is D3H44 light chain Q124R_Q160K_T178R, N-terminal HA or FLAG tag. As to the kind of experiment: LCCA, L1:L2 DNA 1:3, SPR of light chain tags; competing light chain m13.
Assay [5] has as its target D3H44 light chain Q124R, N-terminal HA or FLAG tag. As to the kind of experiment: LCCA, L1:L2 DNA 1:3, SPR of light chain tags; competing light chain m18.
The target in assay [6] is D3H44 light chain Q124E_V133E, N-terminal HA or FLAG tag. The assay is described as follows: LCCA, L1:L2 DNA 1:9, SPR of light chain tags; competing light chain m17.
Assay [7] has the same target. The assay is described as follows: LCCA, L1:L2 DNA 1:3, SPR of light chain tags; competing light chain m17.
In assay [8] the target is D3H44 light chain Q124E_Q160E_T178E, N-terminal HA or FLAG tag. The assay is described as follows: LCCA, L1:L2 DNA 1:3, SPR of light chain tags; competing light chain m14.
In assay [9] the target is D3H44 light chain Q124E_T180E, N-terminal HA or FLAG tag. Described as above.
Assay [10] concerns the target D3H44 light chain Q124R_Q160K_T178R, N-terminal HA or FLAG tag. As to the kind of experiment: LCCA, L1:L2 DNA 1:3, SPR of light chain tags; competing light chain m20.
Assay [11] has as its target D3H44 light chain Q124E_T180E, N-terminal HA or FLAG tag. The assay is described as follows: LCCA, L1:L2 DNA 1:3, SPR of light chain tags; competing light chain m10.
Assay [12] deals with D3H44 light chain Q124E_Q160E_T180E, N-terminal HA or FLAG tag. The assay is described as above.
Assay [13] deals with D3H44 light chain Q124E_S176L_T180E, N-terminal HA or FLAG tag. As to the kind of experiment: LCCA, L1:L2 DNA 1:3, SPR of light chain tags; competing light chain m12.
For assay [14], the target named is D3H44 light chain Q124E_T180E, N-terminal HA or FLAG tag. The description is as above.
The target of assay [15] is D3H44 light chain Q124R_T178R, N-terminal HA or FLAG tag. As to the kind of experiment: LCCA, L1:L2 DNA 1:3, SPR of light chain tags; competing light chain m13.
The target of assay [16] is D3H44 light chain T178R, N-terminal HA or FLAG tag. Described as above.
Assay [17] has as its target D3H44 light chain Q124R_T178K, N-terminal HA or FLAG tag. The assay is described as follows: LCCA, L1:L2 DNA 1:3, SPR of light chain tags; competing light chain m11.
Assay [18] addresses D3H44 light chain T178R, N-terminal HA or FLAG tag. Described as above.
Assay [19] has as its target D3H44 light chain Q124R_T178R, N-terminal HA or FLAG tag. As to the kind of experiment: LCCA, L1:L2 DNA 1:9, SPR of light chain tags; competing light chain m19.
The target of assay [20] is D3H44 light chain T178R, N-terminal HA or FLAG tag. As to the kind of experiment: LCCA, L1:L2 DNA 1:9, SPR of light chain tags; competing light chain m11.
Assay [21] addresses D3H44 light chain Q124E_Q160E_T180E, N-terminal HA or FLAG tag. As to the kind of experiment: LCCA, L1:L2 DNA 1:3, SPR of light chain tags; competing light chain m16.
For assay [22] the target is unchanged. As to the kind of experiment: LCCA, L1:L2 DNA 1:9, SPR of light chain tags; competing light chain m10.
For assay [23], the target named is D3H44 light chain Q124R_T178R, N-terminal HA or FLAG tag. As to the kind of experiment: LCCA, L1:L2 DNA 1:3, SPR of light chain tags; competing light chain m19.
For assay [24], the target named is D3H44 light chain Q124E_S176L_T180E, N-terminal HA or FLAG tag. The assay is described as follows: LCCA, L1:L2 DNA 1:9, SPR of light chain tags; competing light chain m12.

“D3H44 Fab heavy chain L143A_Q179K, ABD2-His6 tagged”: the H1L1:H1L2 normalized median ratio in assay [1] came out at 4%. In assay [2], the H1L1:H1L2 normalized median ratio amounted to 96% and the H1L1:H1L2 normalized median scalar value ln(r1/f1) was found to be 1.

For “D3H44 Fab heavy chain L143E_K145T, C-terminal ABD2-His6 tag”, the H1L1:H1L2 normalized median ratio is 88 share of 100 in assay [3]; 59 share of 100 in assay [4]; 91 share of 100 in assay [5]; 12 share of 100 in [6]; 9 share of 100 in assay [7]; 41 share of 100 in assay [8]. Besides, the H1L1:H1L2 normalized median ratio in [9] is 41 share of 100; in assay [10], 59 share of 100. The H1L1:H1L2 normalized median scalar value ln(r1/f1) was 1.95 in assay [3]; 0.33 and 0.38 in [4]; 2.37 in [5]; 0.37 in assay [10].

As for “D3H44 Fab heavy chain S186K, C-terminal ABD2-His6 tag”, the H2L2:H2L1 normalized median ratio in [11] was 96 share of 100; in assay [12], 91 share of 100; in assay [13] it was 96 share of 100; in assay [14] it was 94 share of 100; in assay [15], 6 share of 100; in [16], 4 share of 100. The H2L2:H2L1 normalized median ratio in [4] was 3 share of 100; in [17] it was 8 share of 100; in [18] it was 9 share of 100; in [19], 9 share of 100; in [20] it was 13 share of 100; in assay [21], 92 share of 100. The H2L2:H2L1 normalized median ratio in [22] was 87 share of 100; in assay [23], 4 share of 100; in [24], 91 share of 100; in [8] it was 99 share of 100; in assay [9], 97 share of 100; in assay [10] it was 1 share of 100.
